Test results from publication PMC4486171, “Ohr Protects Corynebacterium glutamicum against Organic Hydroperoxide Induced Oxidative Stress” (PLoS ONE, 2015).

Substrate: CC(C)(OO)c1ccccc1
Assay: purified protein
Assay type: biochemical, Corynebacterium glutamicum
Conditions: 40 μM Lpd, 5 μM SucB, 0.2 mM NADPH, 0.1 μM Ohr, 50 mM sodium phosphate pH 7.4, 50 mM NaCl, 1 mM DTPA, 37°C

B1: Ohr (Corynebacterium glutamicum ATCC 13032) (protein)
chain: MAIESIAYTSEALSTGSGRLGHVRSTDGALEFEMTPPKALGGSGEGTNPEQLFAVGYAACFHSAMHSVARSRKITLEDTAVGARVSIGPNGAGGFEIAVELEVSIPQLPQAEAQELADAAHQVCPYSNATRGNISVTVSVIDEEA
notes: N-terminal His6 tag (pET-28a), about 17 kDa on gel, E. coli BL21(DE3)
Km: 17.48 ± 0.78 µM | kcat: 5.48 s⁻¹ | kcat/Km: 314300 ± 1420 M⁻¹ s⁻¹
